Assay [1] addresses T1, apoGAD65 (glutamate decarboxylase GAD65, residues 84-585, purified without added PLP) (human, UniProt Q05329). The experiment in a line: HDX-MS.
Assay [2] deals with T1, apoGAD65 (glutamate decarboxylase …). As to the kind of experiment: SPR. Background: SPR reads the build-up and loss of mass on a sensor chip optically.

These results are taken from article doi:10.1101/2024.03.18.585568 (bioRxiv, 2024).

T1 sequence (Q05329 84-585): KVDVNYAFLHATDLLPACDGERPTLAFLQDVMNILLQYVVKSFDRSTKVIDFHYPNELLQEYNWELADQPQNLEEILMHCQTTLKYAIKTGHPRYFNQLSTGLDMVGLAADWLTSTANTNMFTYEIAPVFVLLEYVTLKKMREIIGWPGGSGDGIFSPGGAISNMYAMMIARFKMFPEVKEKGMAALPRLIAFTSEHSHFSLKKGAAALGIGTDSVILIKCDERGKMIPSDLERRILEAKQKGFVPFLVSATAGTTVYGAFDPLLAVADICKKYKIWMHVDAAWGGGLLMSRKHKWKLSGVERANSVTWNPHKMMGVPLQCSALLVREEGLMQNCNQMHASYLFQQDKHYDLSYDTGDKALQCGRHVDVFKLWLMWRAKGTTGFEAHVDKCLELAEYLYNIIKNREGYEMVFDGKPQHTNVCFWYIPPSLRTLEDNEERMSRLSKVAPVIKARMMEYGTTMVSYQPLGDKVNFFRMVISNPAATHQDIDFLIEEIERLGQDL

B1: b96.11 Fab (recombinant Fab based on the human APS-2-associated autoantibody b96.11) (Fab, V domains shown)
VH: EVQLVESGGGLVQPGRSLRLSCSASGFTFGDYAMSWFRLAPGKGLEWVGLIKSRAIDGTPQYAASVKGRFTISRDDSNSIAYLQMNSLTTEDTAIYYCARDFYDFWNEFSHRTFDFWGQGTLVTVSS
VL: QSALTQPASASGSPGQSVTITCTGSSSDVGGYKYVSWYQHHPGKAPKLMIYEVSKRPSGVPDRFSGSKSGNMASLTVSGLQAEDEADYYCSSYAGSYNFYVFGNGTKVTVL
For the molecule B1, the binding result in assay [1] is recorded as “binds”.

B2: b96.11 IgG (purified monoclonal b96.11 IgG antibody) (antibody, V domains shown)
VH: B1 VH
VL: B1 VL
With B2, the binding result in assay [2] is recorded as “binds”.
